# Source: PMC9330529
# B1: S2A1 (ssDNA)
# DNA: CAAGGAGCGACCAGAGGGGCGGTTTATCAACAACTCGCTCTGTACACCACTCTTTGTTGGCATCCTTCAGCCC
# B2: S2A2 (ssDNA)
# DNA: CAAGGAGCGACCAGAGGCGGGTTCCTAGACTTGTACTCAGCCTTTACAGCTATGCCCTGGCATCCTTCAGCCC
# B3: S2A1C1 (ssDNA)
# DNA: CAAGGAGCGACCAGAGGGGCGGTTTATCAACAACTCGCTCTGTACACCACTCTTTG
# Legend:
# SARS-CoV-2 S2 protein [1] = target: SARS-CoV-2 S2 protein (SARS-CoV-2 (WT), UniProt P0DTC2 686-1213); experiment: streptavidin bead fluorescence binding; details: protein: commercial; tags: His
# SARS-CoV-2 S2 protein [2] = target: SARS-CoV-2 S2 protein (SARS-CoV-2 (WT), UniProt P0DTC2 686-1213); experiment: streptavidin bead fluorescence binding; details: protein: commercial, tags: His
# PD-L1 = PD-L1 (UniProt Q9NZQ7 19-238); experiment: AuNP colorimetric assay; 1.5 M NaCl, 250 nM each; SELEX buffer: PBS, 1 mM MgCl2, 0.01% Tween, pH 7.4, room temperature; details: protein: commercial; hairpin
# SARS-CoV-1 spike protein = SARS-CoV-1 spike protein (SARS-CoV-1, UniProt P59594 14-1195)
# SARS-CoV-2 S1 protein = SARS-CoV-2 S1 protein (SARS-CoV-2, UniProt P0DTC2 14-685)
# [3] = target: SARS-CoV-2 spike protein WT (SARS-CoV-2 (WT), UniProt P0DTC2 14-1213); experiment: streptavidin bead fluorescence binding; details: protein: commercial, tags: His, chain copies: 3
# Chain of PD-L1 (Q9NZQ7 19-238): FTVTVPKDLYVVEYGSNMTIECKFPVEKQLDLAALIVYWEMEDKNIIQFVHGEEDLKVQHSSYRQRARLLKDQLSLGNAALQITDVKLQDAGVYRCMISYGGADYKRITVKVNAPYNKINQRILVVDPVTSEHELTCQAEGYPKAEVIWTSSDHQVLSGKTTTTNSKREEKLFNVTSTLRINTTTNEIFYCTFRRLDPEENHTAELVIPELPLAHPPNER
binder,measurement,setting,value
B1,Kd,SARS-CoV-2 S2 protein [1],49.7 ± 3.2 nM
B2,Kd,SARS-CoV-2 S2 protein [2]; label: 6-FAM,44.2 ± 6.6 nM
B3,binding result,SARS-CoV-2 S2 protein [1],binds
CAAGGAGCGACCAGAGGCGGGTTCCTAGACTTGTACTCAGCCT (ssDNA) [S2A2C3],binding result,SARS-CoV-2 S2 protein [2]; label: 6-FAM,binds
AGGCGGGTTCCTAGACTTGTACTCAGCCT (ssDNA) [S2A2C1],binding result,PD-L1,no binding
same,binding result,SARS-CoV-1 spike protein,binds
same,binding result,SARS-CoV-2 S1 protein,no binding
same,Kd,[3]; hairpin,83.4 ± 8 nM
same,Kd,SARS-CoV-2 S2 protein [2]; hairpin,35 ± 4.3 nM
CGCAGCACCCAAGAACAAGGACTGCTTAGGATTGCGATAGGTTCGG (ssDNA) [S1B6C3],Kd,[3],56.4 ± 14.2 nM
